The text below walks through data of publication PMC8149123.

What all share (test): mitochondrial relocalisation (mito-tag) assay, fluorescence microscopy; ANRP fused to Tom70-HA and mCherry held at the outer mitochondrial membrane in Drosophila embryos (cells at stage 12); ectopic recruitment of endogenous CRISPR Arp3:GFP scored by colocalisation, Pearson coefficient and GFP:mCherry intensity ratio; the paper says the approach does not differentiate between direct and indirect interactions

The target of assay [1] is UAS:mito:mCherry:Cortactin (D. melanogaster).
Assay [2] concerns the target UAS:mito:mCherry:DPod1 (D. melanogaster).
For assay [3], the target named is UAS:mito:mCherry:Coronin (D. melanogaster).
Assay [4] addresses UAS:mito:mCherry:Scar (D. melanogaster).

Sequence of CRISPR Arp3:GFP (P32392 whole entry): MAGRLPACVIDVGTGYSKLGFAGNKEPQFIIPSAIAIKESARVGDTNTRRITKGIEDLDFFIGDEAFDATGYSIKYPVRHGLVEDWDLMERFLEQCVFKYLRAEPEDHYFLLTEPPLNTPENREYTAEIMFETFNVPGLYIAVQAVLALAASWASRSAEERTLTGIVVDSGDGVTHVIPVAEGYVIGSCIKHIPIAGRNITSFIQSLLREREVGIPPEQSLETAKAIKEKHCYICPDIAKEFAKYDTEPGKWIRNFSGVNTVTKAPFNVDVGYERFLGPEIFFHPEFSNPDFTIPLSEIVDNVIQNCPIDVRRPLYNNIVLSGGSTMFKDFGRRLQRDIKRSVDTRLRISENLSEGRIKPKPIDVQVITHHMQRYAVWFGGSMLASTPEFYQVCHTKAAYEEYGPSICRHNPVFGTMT
Sequence of UAS:mito:mCherry:Cortactin (D. melanogaster) (main, as listed by the source): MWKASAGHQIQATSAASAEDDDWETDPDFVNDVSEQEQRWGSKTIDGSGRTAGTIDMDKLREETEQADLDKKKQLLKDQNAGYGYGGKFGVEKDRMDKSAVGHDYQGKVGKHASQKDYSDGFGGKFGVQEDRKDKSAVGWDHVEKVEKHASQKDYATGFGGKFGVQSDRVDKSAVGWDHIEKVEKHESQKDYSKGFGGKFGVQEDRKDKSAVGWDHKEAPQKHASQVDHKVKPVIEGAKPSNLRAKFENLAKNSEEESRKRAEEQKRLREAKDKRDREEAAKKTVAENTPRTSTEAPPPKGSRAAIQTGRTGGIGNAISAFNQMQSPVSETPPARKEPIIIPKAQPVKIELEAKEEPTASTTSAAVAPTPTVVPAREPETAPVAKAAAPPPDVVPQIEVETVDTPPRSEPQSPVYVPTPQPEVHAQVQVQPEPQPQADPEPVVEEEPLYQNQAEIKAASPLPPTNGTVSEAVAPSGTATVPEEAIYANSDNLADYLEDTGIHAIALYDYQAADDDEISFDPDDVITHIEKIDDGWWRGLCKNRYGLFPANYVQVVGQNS

As to “CRISPR Arp3:GFP (from UniProt P32392 1-418) (natural protein)”, the Pearson correlation coefficient of colocalisation in assay [1] is 0.492; in assay [2], 0.625; in assay [3] it was 0.234; in assay [4], 0.313. Moreover, the percent colocalization in assay [4] came out at 50%.
